Laboratory results published in patent publication US20250326862A1, “Antibody or Fragment Thereof Binding Specifically to Mertk, and Anti-Tumor Agent” (Chiome Bioscience Inc., priority 2021, published 2025).
“Also recorded” adds a separate entry of the source.

Key:
[1] = Test 8: toxic dose by in vivo ocular toxicity test, TB staining; set-up: species or system Balb/c mice; conditions: 3 or 10 mg/kg intravenous twice a week, eyes removed day 30
Experimental: The ocular toxicity test was carried out using Balb/c mice. The mice intravenously received a solvent or “m20A77_mIgG1” at a dose of 3 or 10 mg/kg at a frequency of twice a week. At day 30 after the first administration, eyes were removed, fixed with a Karnovsky's fixative and then subjected to embedding in a resin, preparation of sections and TB staining carried out by Applied Medical Research Laboratory.

human MerTK [2] = molecular target: T1, human MerTK (Homo sapiens, UniProt Q12866); test: Test 9: antigen binding activity of humanized antibodies by ELISA; conditions: compared with the original human chimeric antibody (m20A77_hIgG1LALA or 24A1_hIgG1LALA, respectively); FIG. 21
T1 sequence (Q12866 21-999): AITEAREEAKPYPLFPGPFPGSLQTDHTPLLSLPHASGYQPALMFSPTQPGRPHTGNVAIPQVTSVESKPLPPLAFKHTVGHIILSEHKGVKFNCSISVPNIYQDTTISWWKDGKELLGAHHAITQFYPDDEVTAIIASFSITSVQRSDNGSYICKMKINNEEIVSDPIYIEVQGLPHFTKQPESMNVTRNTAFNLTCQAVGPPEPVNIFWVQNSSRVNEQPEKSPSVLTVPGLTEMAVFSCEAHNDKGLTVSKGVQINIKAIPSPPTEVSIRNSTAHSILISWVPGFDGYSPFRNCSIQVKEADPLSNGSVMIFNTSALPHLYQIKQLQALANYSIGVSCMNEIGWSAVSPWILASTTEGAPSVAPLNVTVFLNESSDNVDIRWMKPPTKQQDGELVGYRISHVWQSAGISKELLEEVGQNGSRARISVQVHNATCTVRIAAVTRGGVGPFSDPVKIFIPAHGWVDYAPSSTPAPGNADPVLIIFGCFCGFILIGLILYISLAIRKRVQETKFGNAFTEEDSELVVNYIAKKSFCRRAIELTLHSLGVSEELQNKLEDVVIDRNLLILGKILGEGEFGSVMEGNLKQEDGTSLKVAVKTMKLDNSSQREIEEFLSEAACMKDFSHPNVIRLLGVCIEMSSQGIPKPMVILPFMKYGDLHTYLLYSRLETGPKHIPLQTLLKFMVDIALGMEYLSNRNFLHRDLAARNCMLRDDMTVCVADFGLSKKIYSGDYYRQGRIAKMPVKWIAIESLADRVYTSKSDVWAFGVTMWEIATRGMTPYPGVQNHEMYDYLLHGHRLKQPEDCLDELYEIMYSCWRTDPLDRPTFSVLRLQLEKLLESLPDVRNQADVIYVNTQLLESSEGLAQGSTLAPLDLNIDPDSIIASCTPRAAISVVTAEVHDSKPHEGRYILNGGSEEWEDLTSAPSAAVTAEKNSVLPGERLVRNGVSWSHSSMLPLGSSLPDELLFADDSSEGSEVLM
Experimental: (§1) The ELISA was performed according to the procedures indicated below. First, the respective antigens were added to an ELISA plate (Nunc) at a concentration of 5 μg/ml and immobilized overnight at room temperature. After removing the immobilization solution, 1% BSA/PBS was added for blocking reaction and left to stand at room temperature for 1 hour. After the blocking, the plate was washed with 0.05% Tween 20/PBS and an antibody solution was added for primary reaction at room temperature for 1 hour. After washing, an HRP-labelled antibody (GE Healthcare) was added for secondary reaction for 1 hour. After washing, a chromogenic substrate solution of TMB (Dako) was added for chromogenic reaction for 10 minutes, 1 N sulfuric acid was added to terminate the reaction and the absorbance was measured at 450 nm.
The prepared antibodies were checked for antigen binding activity by ELISA.

[3] = molecular target: T2, binding of MerTK with Gas6 (Homo sapiens, UniProt Q12866); test: Test 6: ligand binding inhibition ELISA, MerTK with Gas6; conditions: human MerTK 5 μg/ml immobilized; biotinylated Gas6 10 nM; FIGS. 13 and 15
T2 construct: purchased R&D Systems
T2 sequence (Q12866 26-499 limits assumed): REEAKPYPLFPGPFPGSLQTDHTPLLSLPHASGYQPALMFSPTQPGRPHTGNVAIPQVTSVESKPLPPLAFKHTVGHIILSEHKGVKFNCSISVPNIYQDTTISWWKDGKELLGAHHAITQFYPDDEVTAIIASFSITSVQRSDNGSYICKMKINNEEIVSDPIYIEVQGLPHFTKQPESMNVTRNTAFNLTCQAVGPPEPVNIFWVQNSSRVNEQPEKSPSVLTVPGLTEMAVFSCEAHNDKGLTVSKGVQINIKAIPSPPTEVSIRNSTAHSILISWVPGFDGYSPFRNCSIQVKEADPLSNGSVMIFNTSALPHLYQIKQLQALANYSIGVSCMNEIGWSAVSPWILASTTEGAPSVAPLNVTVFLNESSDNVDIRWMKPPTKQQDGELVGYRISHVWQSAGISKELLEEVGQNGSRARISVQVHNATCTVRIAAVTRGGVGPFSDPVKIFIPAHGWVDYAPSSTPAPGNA
Experimental: (§2) “20A77” and “24A1” were evaluated for the ability to inhibit binding of MerTK with various ligands. The MerTK ligands used were human Gas6 (R&D Systems) and human TULP1 (abcam plc.) which were respectively biotinylated using “Biotin Labeling Kit-NH” (Dojindo Laboratories Co., Ltd.). […] TULP1 is a ligand correlated with ocular toxicity, and an antibody having an activity to inhibit binding of MerTK with TULP1 may have ocular toxicity. Thus, an antibody having high inhibitory activity of binding to Gas6 and low inhibitory activity of binding to TULP1 may be an efficacious anti-tumor agent having low ocular toxicity.
as §1, with “The ligand binding inhibition test” for “The ELISA”, “was carried out as” for “was performed according to the procedures”, “First, human MerTK (R&D Systems) was” for “First, the respective antigens were”, “hour. […]” for “hour. After washing, an HRP-labelled antibody (GE Healthcare) was added for secondary reaction for 1 hour.”, “for 20” for “for 10”

[4] = molecular target: T3, binding of MerTK with TULP1 (Homo sapiens, UniProt Q12866); test: Test 6: ligand binding inhibition ELISA, MerTK with TULP1; conditions: human MerTK 5 μg/ml immobilized; biotinylated TULP1 40 nM; FIGS. 14 and 16
T3 construct: purchased R&D Systems
T3 sequence (Q12866 26-499 limits assumed): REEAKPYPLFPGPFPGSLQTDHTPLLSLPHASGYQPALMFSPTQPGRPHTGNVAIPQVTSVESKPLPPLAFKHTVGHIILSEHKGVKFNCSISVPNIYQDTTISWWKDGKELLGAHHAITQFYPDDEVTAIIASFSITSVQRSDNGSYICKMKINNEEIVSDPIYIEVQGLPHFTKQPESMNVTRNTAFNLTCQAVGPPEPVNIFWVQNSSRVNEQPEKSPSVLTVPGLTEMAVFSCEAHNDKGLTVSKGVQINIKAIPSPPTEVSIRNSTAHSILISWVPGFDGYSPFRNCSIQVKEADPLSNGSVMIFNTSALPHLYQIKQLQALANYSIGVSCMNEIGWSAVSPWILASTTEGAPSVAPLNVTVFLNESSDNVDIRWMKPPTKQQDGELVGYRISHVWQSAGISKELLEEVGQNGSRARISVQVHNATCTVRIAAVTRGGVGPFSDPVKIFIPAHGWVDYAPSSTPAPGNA
Experimental: as §2
as §1, with “The ligand binding inhibition test” for “The ELISA”, “was carried out as” for “was performed according to the procedures”, “First, human MerTK (R&D Systems) was” for “First, the respective antigens were”, “hour. […]” for “hour. After washing, an HRP-labelled antibody (GE Healthcare) was added for secondary reaction for 1 hour.”, “for 20” for “for 10”

human MerTK [5] = molecular target: T1, human MerTK; test: MerTK phosphorylation inhibition test in hMerTK-EL4 cells stimulated with human Gas6; type: cell-based; set-up: expressed in transfected cells; host or cells: mouse lymphoma cell line EL4 (hMerTK-EL4); conditions: hMerTK-EL4, antibody 1 hour, then 200 nM human Gas6 for 10 minutes; phospho-Mer ELISA; FIG. 1
Experimental: On the basis of the procedures indicated below, the clones were evaluated for MerTK phosphorylation inhibitory activity. Higher activity means higher binding ability to MerTK.
The cells (hMerTK-EL4) stably expressing human MerTK were cultured in a “DMEM high glucose medium” (Thermo Fisher Scientific Inc.) containing 10% FBS. After the cultivation, the cells were washed in PBS, suspended in a serum-free medium, plated in a 96-well plate at 1×10^6 cells/well and incubated at 37° C. for 3 hours. After the incubation, the respective clones were added, the hMerTK-EL4 was allowed to react for 1 hour, stimulated with 200 nM human Gas6 (R&D Systems) for 10 minutes and centrifuged and collected. The collected hMerTK-EL4 was lysed in a cell lysis solution, and the level of the phosphorylated MerTK protein in the lysate was determined using “Human Phospho-Mer DuoSet IC ELISA” (R&D Systems). The cell lysis solution used contained 1% “IGEPAL CA-630” (SIGMA) and 1×concentration of “Halt Protease and Phosphatase Inhibitor Single-Use Inhibitor Cocktail” (Thermo Fisher Scientific Inc.) added to MilliQ water.

B1: m20A77_mIgG1: mouse IgG1 antibody of m20A77 (antibody, V domains shown)
VH: QVQLQQPGTELVKPGASVKLSCRASGNTFTSYWMHWVKQRPGQGLEWIGNINPSSGGTNYNEKFKSKATLTVDKSSSTAYMQLSSLTSEDSAVYYCARLNYYGFDGFAFWGQGTLVTVSA
VL: DIKMTQSPSSMYASLGERVTITCKASQDINSYLSWFQQKPGKSPKTLIYRANRLVSGVPSRFSGSGSGQDYSLTISSLEYEDMGIYYCLQYDEFPFTFGSGTKLEIK
For B1, the “TB-positive granules (retinal pigment epithelium)” value ([1]; FIG. 19) was “no increase in TB-positive granules was observed” and the “abnormal shrinkage of the outer nuclear layer” value ([1]; FIG. 20) was “no abnormal shrinkage of the outer nuclear layer was observed”.

B2: hz20A77_hIgG1LALA: humanized antibody derived from m20A77 with human IgG1 constant region having LALA sequence (antibody, V domains shown)
VH: QVQLVQSGAEVKKPGSSVKVSCKASGNTFTSYWMHWVRQAPGQGLEWIGNINPSSGGTNYNEKFKSRVTITVDKSTSTAYMELSSLRSEDTAVYYCARLNYYGFDGFAFWGQGTLVTVSS
VL: DIQMTQSPSSLSASVGDRVTITCKASQDINSYLSWFQQKPGKAPKTLIYRANRLVSGVPSRFSGSGSGTDYTLTISSLQPEDFATYYCLQYDEFPFTFGGGTKVEIK
With B2 the “antigen binding activity (reactivity) in ELISA” value (human MerTK [2]) was “reactivity similar to or higher than original human chimeric antibodies”.

B3: hz24A1_hIgG1LALA: humanized antibody derived from 24A1 with human IgG1 constant region having LALA sequence (antibody, V domains shown)
VH: EVQLVESGGGLVQPGGSLRLSCAASGFTFNVYDMHWVRQAPGKGLEWVARIRSKSSNYATNYADSVKDRFTISRDDAKNSLYLQMNSLRAEDTAVYYCVRDGSHYYYALDYWGQGTTVTVSS
VL: DIQMTQSPSSLSASVGDRVTITCRASQDINNYLNWYQQKPGKAPKLLIYYSSRLHSGVPSRFSGSGSGTDYTLTISSLQPEDFATYYCQQGKMFPWTFGGGTKVEIK
For B3, the “antigen binding activity (reactivity) in ELISA” value (human MerTK [2]) was “reactivity similar to or higher than original human chimeric antibodies”.

B4: 24A1: anti-MerTK mouse monoclonal antibody clone; VH SEQ ID NO: 9, VL SEQ ID NO: 13 (antibody, V domains shown)
VH: EVQLVESGGGLVQPKGSLKLSCAASGFTFNVYDMHWVRQAPGEGLEWVARIRSKSSNYATNYADSVKDRFTISRDDSQSMLYLQMNNLQTEDTAIYYCVRDGSHYYYALDYWGQGTSVTVSS
VL: DIQMTQTTSSLSASLGDRVTISCRASQDINNYLNWYQQKLDGTVKLLIYYSSRLHSGVPSRFSGSGSGTDYSLTISNLEQEDIATYFCQQGKMFPWTFGGGTKLEIK
With B4 the “inhibition of binding of Gas6 with MerTK” value [3] was “inhibited binding of Gas6 with MerTK; also recorded: strongly inhibited binding of Gas6 with MerTK”, the “inhibition of binding of TULP1 with MerTK” value [4] was “did not inhibit binding of TULP1 with MerTK” and the “MerTK phosphorylation inhibitory activity” value (human MerTK [5]) was “inhibited binding of Gas6 with MerTK and MerTK phosphorylation in a concentration dependent manner”.
